Experimental data: patent US20170268065

Biological target: T1, ELK-1 fusion protein (Cell Signaling), P19419
T1 chain: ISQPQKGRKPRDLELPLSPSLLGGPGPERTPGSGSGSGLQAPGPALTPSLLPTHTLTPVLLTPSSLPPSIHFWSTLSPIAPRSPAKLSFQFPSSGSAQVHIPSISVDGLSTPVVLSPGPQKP

B1: V5-tagged ERK1^Y148H (protein)
chain: MAAAAAQGGGGGEPRRTEGVGPGVPGEVEMVKGQPFDVGPRYTQLQYIGEGAYGMVSSAYDHVRKTRVAIKKISPFEHQTYCQRTLREIQILLRFRHENVIGIRDILRASTLEAMRDVYIVQDLMETDLYKLLKSQQLSNDHICYFLHQILRGLKYIHSANVLHRDLKPSNLLINTTCDLKICDFGLARIADPEHDHTGFLTEYVATRWYRAPEIMLNSKGYTKSIDIWSVGCILAEMLSNRPIFPGKHYLDQLNHILGILGSPSQEDLNCIINMKARNYLQSLPSKTKVAWAKLFPKSDSKALDLLDRMLTFNPNKRITVEEALAHPYLEQYYDPTDEPVAEEPFTFAMELDDLPKERLKELIFQETARFQPGVLEAP
- ERK kinase activity (ELK-1 peptide phosphorylation, IP kinase assay after trametinib exposure): diminished residual kinase activity in the setting of trametinib exposure with the common docking domain mutants compared to other alleles
